# T1: Elav (Drosophila melanogaster (w1118), UniProt P16914 1-483)
# T1 sequence: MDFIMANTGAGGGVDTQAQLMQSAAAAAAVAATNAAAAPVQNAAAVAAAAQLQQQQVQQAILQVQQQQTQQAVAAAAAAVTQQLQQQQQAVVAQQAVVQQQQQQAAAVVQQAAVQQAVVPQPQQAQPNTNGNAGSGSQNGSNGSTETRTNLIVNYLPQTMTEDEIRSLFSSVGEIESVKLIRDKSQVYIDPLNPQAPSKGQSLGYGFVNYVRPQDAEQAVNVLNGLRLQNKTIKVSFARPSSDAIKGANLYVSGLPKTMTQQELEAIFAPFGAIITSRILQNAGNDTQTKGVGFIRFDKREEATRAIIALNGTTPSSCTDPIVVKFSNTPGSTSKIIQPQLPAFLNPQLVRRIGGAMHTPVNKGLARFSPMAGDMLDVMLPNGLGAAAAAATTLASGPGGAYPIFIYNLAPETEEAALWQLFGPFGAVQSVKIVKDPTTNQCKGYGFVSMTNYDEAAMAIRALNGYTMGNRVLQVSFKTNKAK
# Target: T1, Elav
# Assay: EMSA
binder,measurement,value
"UGUGUAAGUGAGUACGGUCGCUGUGGUGUGAUGAUGGGUGUGG (ssRNA, U to G substitutions disrupting U-rich stretches) [Dscam1 EBS mutant probe]",binding result,no binding

# — doi:10.1101/613059
